Results: patent US20260078342A1

Target: CD16 (FcγRIIIa/CD16a), high affinity variant with valine at amino acid 176, expressed on haNK003 cells (human) (UniProt P08637)
Test: cell-based or functional assay

Sequence of UniProt P08637 (P08637 other isoform, or with tags, fused parts or gaps mutant limits assumed): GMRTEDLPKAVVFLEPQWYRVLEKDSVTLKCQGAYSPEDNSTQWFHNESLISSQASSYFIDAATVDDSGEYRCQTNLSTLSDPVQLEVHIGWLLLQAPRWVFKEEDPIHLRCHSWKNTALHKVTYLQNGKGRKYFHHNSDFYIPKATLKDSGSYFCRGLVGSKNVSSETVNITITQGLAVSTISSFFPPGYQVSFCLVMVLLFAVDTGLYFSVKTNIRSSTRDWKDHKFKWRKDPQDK

With Rituximab (antibody) as the substance, how does the ADCC assay (specific lysis), haNK003 at 1:1 E:T Ratio with Rituxan (3.3 µg/mL) vs DOHH2 read?
The ADCC assay (specific lysis), haNK003 at 1:1 E:T Ratio with Rituxan (3.3 µg/mL) vs DOHH2 was 52.8%.
